One assay addresses T1, mTfR (Mus musculus, UniProt Q62351).
T1 construct: living cells expressing the receptor of interest, namely murine neuroblastoma Neuro-2a cells (N2a); endogenous in cells; host or cells: Neuro-2a (N2a) murine neuroblastoma cells
In words: Competition assay with fluorescent reference C5-Alexa680 on living Neuro-2a cells. In kind it is binding. The following applies: cells expressing murine TfR (Neuro-2a), C5-Alexa680 100 nM, 3 hrs at 37°C; Ki similar or lower than free VHHs. As to the method: (§1) The binding of VHH-Oligo conjugates to mTfR, rhTfR and hTfR was evaluated using a competition assay on living cells expressing the receptor of interest, namely murine neuroblastoma Neuro-2a cells (N2a), CHO cells genetically engineered by the inventors to stably express the macaque rhesus TfR fused to the eGFP protein in C-terminal (CHO-rhTfR-GFP cells), or human breast ductal carcinoma MCF-7 cells, respectively. MCF-7 and N2a cells were grown in Dulbecco's Modified Eagle Medium (DMEM) GlutaMAX supplemented with 10% v/v FBS in 5% CO2 at 37°C. CHO-rhTfR-GFP cells were grown in Ham F12 GlutaMAX supplemented with 10% v/v FBS in 5% CO2 at 37°C. Cells were seeded two days before experiments in 96-well plates at a density of 50.000 cells/well. On the day of the experiment, free VHHs or VHH-Oligo conjugates diluted at various concentrations in DMEM supplemented with 1% bovine serum albumin (BSA) (MCF-7 and N2a cells) or in Ham F12 supplemented with 1% BSA (CHO-rhTfR-GFP cells) were co-incubated at various concentrations on each cell line during 3 hrs at 37°C with a subsaturating concentration of the fluorescent reference compound C5-Alexa680 (100 nM on N2a and CHO-rhTfR-GFP cell lines, 10 nM on MCF-7 cells). After treatment, cells were washed with D-PBS and dissociated by incubating with Trypsin/EDTA for 5 mins at 37°C, before the addition of cold culture media (4°C) to inhibit Trypsin activity. Resuspended cells were transferred in a 96-deepwell plate (V-bottom) containing 1% fetal bovine serum (FBS) / 0.02% sodium azide in phosphate-buffered saline (PBS) and then centrifuged for 5 min at 2000 rpm at 4°C. After removing the supernatant, 5 mM EDTA in D-PBS and 4% paraformaldehyde (PFA) (v/v 1:1) were added into wells to fix cells for 15 min at room temperature. PFA was removed by centrifugation (5 min, 3000 rpm, 4°C) and cells were resuspended with 5 mM EDTA in D-PBS. Then the cellular A680-associated fluorescence signal was quantified using an Attune™ NxT flow cytometer (Thermo Fisher Scientific) equipped with Attune™ NxT v3.1.2. Experimental data (experimental triplicates) were fitted with GraphPad Prism® software using a nonlinear fit to determine the apparent Ki inhibition constants. Graphs of Figure 1 show representative inhibition curves and tables show means ± SD of at least 2 independent experiments.

The test system of a further assay is rhTfR. In words: Competition assay with fluorescent reference C5-Alexa680 on living CHO-rhTfR-GFP cells. In kind it is binding. The note with it: cells expressing macaque rhesus TfR (CHO-rhTfR-GFP), C5-Alexa680 100 nM, 3 hrs at 37°C; Ki similar or lower than free VHHs. The procedure:
as §1

The target in a further assay is T2, hTfR (Homo sapiens, UniProt P02786).
T2 construct: or human breast ductal carcinoma MCF-7 cells, respectively; endogenous in cells; host or cells: MCF-7 human breast ductal carcinoma cells
T2 sequence (P02786 whole entry): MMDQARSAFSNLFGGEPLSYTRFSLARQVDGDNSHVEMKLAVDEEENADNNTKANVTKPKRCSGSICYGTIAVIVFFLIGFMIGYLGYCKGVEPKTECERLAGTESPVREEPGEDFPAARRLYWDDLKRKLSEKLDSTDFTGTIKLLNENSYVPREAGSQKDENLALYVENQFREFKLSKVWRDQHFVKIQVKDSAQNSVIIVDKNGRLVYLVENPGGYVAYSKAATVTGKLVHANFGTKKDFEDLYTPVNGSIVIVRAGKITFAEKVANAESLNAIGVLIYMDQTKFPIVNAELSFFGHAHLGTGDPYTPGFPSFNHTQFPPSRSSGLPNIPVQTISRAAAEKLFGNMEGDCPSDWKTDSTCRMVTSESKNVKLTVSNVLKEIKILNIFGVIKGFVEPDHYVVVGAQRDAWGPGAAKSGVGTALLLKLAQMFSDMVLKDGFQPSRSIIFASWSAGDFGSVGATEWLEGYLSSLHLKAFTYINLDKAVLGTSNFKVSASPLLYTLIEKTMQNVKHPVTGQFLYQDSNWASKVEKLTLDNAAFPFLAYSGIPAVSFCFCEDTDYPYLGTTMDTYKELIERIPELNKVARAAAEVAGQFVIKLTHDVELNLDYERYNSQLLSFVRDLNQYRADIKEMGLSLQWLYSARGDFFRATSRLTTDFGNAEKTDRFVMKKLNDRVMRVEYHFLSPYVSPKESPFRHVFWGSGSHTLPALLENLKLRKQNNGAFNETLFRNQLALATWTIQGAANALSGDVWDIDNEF
In words: Competition assay with fluorescent reference C5-Alexa680 on living MCF-7 cells. The assay is classed as binding. The following applies: cells expressing human TfR (MCF-7), C5-Alexa680 10 nM, 3 hrs at 37°C; Ki similar or lower than free VHHs. As to the method:
as §1

A further assay deals with hSOD1 mRNA. In words: Free uptake gene silencing (RT-qPCR) in human cell lines. The following applies: 3 days, various human cell lines (Figure 2A). The assay is classed as cell-based. The procedure: Human cell lines MCF-7 (breast ductal carcinoma cells), Igrov-1 (ovarian cancer cells) and MIA PaCa-2 cells (pancreatic cancer cells) and the murine neuroblastoma cell line Neuro-2a were grown in DMEM GlutaMAX supplemented with 10% v/v FBS in 5% CO2 at 37°C. For free uptake experiments, cells were seeded in 96-well plates at a density of 2.000 cells/well. Twenty-four hours later, the medium was removed, and cells were further incubated during 3 days in DMEM supplemented with 1% v/v FBS containing various concentrations of free or conjugated oligos. […] Relative RNA expression levels were quantified by RT-qPCR using the TaqMan™ Fast Universal PCR Master Mix (2X) no AmpErase™ UNG kit (Applied Biosystems) and commercially available TaqMan™ probes for murine SOD1, human SOD1 or human MALAT-1 genes (Applied Biosystems). Expression data were analyzed using the DDCq method normalized to the expression of reference RpL 13 or GAPDH genes, based on raw quantification cycle (Cq) values (Bustin et al.) and are presented as mRNA levels relative to untreated cells. Experimental data (experimental triplicates) are presented as means ± standard deviation (SD) and were analysed with GraphPad Prism® software using a three-parameter log(inhibitor) vs. response nonlinear regression to determine the IC50. […]
In general terms: Quantitative PCR measures a nucleic acid by following its amplification.

Another assay concerns SOD1 mRNA. In words: In vivo mRNA knock-down by VHH-siSOD1h conjugate in non-human primates. Further details: species or system olive baboons (Papio Anubis). As to the method: VHH-siSOD1h conjugates targeting the human and non-human primate (NHP) SOD1 gene were assessed for their ability to mediate SOD1 mRNA knock-down in muscle tissues of olive baboons (Papio Anubis). PBS vehicle (control) or a TfR-binding VHH-siSOD 1h conjugate was administered as a single intravenous (IV infusion, 30 min) in olive baboons (males, 10-17-month-old, 2.6-4.5kg) at the dose of 5 mg/kg (siRNA molar equivalent). At indicated times following administration, approximately 100 mg samples of gastrocnemius, quadriceps and tibialis anterior muscle were withdrawn under general anesthesia, snap-frozen in 10 vol. ofNucleoProtect RNA stabilization reagent (Macherey-Nagel) and stored at -20°C. […] RNA samples were analyzed and dosed using a Fragment Analyzer RNA kit in a Fragment Analyzer system (Agilent). Relative RNA expression levels were quantified by RT-qPCR using the TaqMan™ Fast Universal PCR Master Mix (2X) no AmpErase™ UNG kit (Applied Biosystems) and commercially available TaqMan™ probes for […] and RpL13 genes (Applied Biosystems). Expression data were analyzed using the DDCq method normalized to the expression of the reference RpL13 gene, based on raw quantification cycle (Cq) values (Bustin et al.). The results are expressed as means ± standard error of the mean (SEM) and are presented as mRNA levels relative to the control animals injected with PBS. […]

T1 sequence (Q62351 whole entry): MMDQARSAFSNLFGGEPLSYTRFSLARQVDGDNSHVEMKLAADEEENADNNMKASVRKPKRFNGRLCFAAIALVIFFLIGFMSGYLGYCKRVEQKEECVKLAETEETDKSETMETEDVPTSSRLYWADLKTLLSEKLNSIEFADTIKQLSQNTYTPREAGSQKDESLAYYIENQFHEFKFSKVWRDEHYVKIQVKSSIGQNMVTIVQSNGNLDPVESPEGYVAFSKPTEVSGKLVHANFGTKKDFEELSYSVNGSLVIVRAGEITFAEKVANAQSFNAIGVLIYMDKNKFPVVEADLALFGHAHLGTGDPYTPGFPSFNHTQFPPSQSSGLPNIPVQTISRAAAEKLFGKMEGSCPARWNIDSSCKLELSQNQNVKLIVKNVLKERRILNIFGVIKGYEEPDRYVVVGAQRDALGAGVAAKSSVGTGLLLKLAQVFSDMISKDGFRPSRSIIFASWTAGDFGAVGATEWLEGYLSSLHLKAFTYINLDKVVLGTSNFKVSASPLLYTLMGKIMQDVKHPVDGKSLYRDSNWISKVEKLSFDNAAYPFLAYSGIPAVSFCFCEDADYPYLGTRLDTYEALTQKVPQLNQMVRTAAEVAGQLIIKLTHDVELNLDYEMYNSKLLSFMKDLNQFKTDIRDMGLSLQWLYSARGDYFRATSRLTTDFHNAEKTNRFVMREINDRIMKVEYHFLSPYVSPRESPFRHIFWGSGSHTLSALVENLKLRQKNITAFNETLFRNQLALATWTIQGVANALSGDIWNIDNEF

B1: C5-siSOD1m: VHH-Oligo conjugate of VHH C5 and siSOD1m (conjugate)
VHH: EVQLVESGGGVVQPGGSLKLSCVASGTDFSINFIRWYRQAPGKQREFVAGFTATGNTNYADSMKGRFTISRDNTKNAVYLQIDSLKPEDTAVYYCYMLDKWGQGTQVTVSS
modifications: left off: things letters cannot carry; small tags and cut ends
Take B1: the “inhibition of the binding and uptake of the reference compound” value (from here on “inhibition”) in the assay with mTfR, in the assay with rhTfR and in the assay with hTfR was “concentration-dependent inhibition” throughout.

B2: C5-siSOD1h: VHH-Oligo conjugate of VHH C5 and siSOD1h; Figure 12 legend: VHH is C5 (conjugate)
VHH: EVQLVESGGGVVQPGGSLKLSCVASGTDFSINFIRWYRQAPGKQREFVAGFTATGNTNYADSMKGRFTISRDNTKNAVYLQIDSLKPEDTAVYYCYMLDKWGQGTQVTVSS
modifications: left off: things letters cannot carry; small tags and cut ends
B2: the “inhibition” value with mTfR, with rhTfR and with hTfR was “concentration-dependent inhibition” throughout. Further, in the assay with hSOD1 mRNA, the “effect on hSOD1 mRNA levels” value is “potent and concentration-dependent hSOD1 mRNA downregulation”. Moreover, the “knock-down of SOD1 mRNA” value with SOD1 mRNA (all muscle tissues tested (gastrocnemius, quadriceps, tibialis anterior), single IV infusion 5 mg/kg (siRNA molar equivalent) (Figure 12)) is listed as 60%. Besides, the duration of knock-down result with SOD1 mRNA (single IV infusion 5 mg/kg (siRNA molar equivalent)) was “more than three months”.

B3: B8-siSOD1m: VHH-Oligo conjugate of VHH B8 and siSOD1m (conjugate)
VHH: EVQLVESGGGVVQPGGSLRLSCAASGEIFSINFMRWYRQAPGKQREWVAGFTRDGSTNYPDSAKGRFTISRDNAKNTVYLQIDSLKPEDTAVYYCYMLDTWGQGTQVTVSS
modifications: left off: things letters cannot carry; small tags and cut ends
Consider B3, for which the “inhibition” value with mTfR, with rhTfR and in the assay with hTfR was “concentration-dependent inhibition” throughout.

B4: B8-siSOD1h: VHH-Oligo conjugate of VHH B8 and siSOD1h (conjugate)
VHH: EVQLVESGGGVVQPGGSLRLSCAASGEIFSINFMRWYRQAPGKQREWVAGFTRDGSTNYPDSAKGRFTISRDNAKNTVYLQIDSLKPEDTAVYYCYMLDTWGQGTQVTVSS
modifications: left off: things letters cannot carry; small tags and cut ends
B4: the “inhibition” value with mTfR, in the assay on rhTfR and with hTfR was “concentration-dependent inhibition” throughout. Besides, the “effect on hSOD1 mRNA levels” value with hSOD1 mRNA was “potent and concentration-dependent hSOD1 mRNA downregulation”.

The values above are taken from EP4480964A1, “TRANSFERRIN RECEPTOR-BINDING MOLECULES, CONJUGATES THEREOF AND THEIR USES TO PREVENT OR TREAT MUSCULAR DISEASES” (Vect-Horus, priority 2023, dated 2024).
